According to patent US7205275 (dated 2007):
Read-outs that look alike come from different tables or passages of the source. Primed or numbered codes have the meaning given here. Where no end group is shown, it is not given here. [ ]: non-standard residue; d: D form. Fc(3) = Fc: non-antigen-binding fragment of an antibody from proteolytic digestion of a whole antibody (vehicle); Fc(4) = non-antigen-binding fragment of an antibody (from proteolytic digestion of a whole antibody); Fc = immunoglobulin Fc domain fused to the peptide (peptibody); Fc(7) = Fc domain, peptide fused N- or C-terminal to it; Fc″ = Fc domain of the peptibody fusion

T1: human Ang-2 (human, UniProt O15123)
T1 chain: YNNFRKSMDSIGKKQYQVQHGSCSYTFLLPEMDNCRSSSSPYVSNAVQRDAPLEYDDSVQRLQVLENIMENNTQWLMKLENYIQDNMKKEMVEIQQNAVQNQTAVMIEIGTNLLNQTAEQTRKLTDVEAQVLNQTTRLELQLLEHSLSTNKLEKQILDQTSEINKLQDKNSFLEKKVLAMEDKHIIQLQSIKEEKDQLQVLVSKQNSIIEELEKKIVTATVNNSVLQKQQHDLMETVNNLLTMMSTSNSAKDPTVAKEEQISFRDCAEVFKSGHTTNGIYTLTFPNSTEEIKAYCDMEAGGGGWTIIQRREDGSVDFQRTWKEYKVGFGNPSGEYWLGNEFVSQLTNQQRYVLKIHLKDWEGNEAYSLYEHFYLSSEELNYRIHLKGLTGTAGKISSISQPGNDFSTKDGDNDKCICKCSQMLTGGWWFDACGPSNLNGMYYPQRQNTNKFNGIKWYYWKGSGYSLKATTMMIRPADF

T2: human Ang-1 (human, UniProt Q15389)
T2 chain: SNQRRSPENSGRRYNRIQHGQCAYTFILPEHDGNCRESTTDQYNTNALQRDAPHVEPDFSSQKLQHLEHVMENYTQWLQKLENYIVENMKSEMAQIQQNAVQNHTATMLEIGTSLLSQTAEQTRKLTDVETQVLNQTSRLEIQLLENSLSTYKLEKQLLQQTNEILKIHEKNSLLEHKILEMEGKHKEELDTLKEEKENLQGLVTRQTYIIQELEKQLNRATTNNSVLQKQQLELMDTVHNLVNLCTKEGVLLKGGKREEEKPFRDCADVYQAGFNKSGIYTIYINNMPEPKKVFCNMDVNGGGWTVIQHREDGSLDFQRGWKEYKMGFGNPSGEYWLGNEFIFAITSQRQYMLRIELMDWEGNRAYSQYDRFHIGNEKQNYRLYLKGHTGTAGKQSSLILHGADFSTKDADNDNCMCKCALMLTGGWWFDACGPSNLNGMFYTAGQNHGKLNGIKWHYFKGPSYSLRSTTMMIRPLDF

T3: rat Ang-2 (rAng-2) (rat, UniProt O35462)
T3 chain: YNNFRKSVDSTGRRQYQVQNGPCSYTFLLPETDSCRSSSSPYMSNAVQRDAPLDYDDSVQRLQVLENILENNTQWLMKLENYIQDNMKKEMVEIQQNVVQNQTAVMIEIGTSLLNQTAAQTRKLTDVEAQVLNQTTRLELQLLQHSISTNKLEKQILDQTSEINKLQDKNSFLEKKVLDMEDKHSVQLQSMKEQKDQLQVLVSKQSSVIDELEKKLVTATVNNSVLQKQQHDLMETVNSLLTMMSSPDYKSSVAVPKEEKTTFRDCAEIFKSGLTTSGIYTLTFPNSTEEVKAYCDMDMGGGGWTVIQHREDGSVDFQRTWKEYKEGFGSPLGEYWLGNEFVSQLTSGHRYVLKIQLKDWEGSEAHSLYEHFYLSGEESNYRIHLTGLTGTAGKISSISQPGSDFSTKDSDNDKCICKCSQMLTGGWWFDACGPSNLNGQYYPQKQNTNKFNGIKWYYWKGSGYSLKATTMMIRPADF

T4: mouse Ang-2 (mouse, UniProt O35608)
T4 chain: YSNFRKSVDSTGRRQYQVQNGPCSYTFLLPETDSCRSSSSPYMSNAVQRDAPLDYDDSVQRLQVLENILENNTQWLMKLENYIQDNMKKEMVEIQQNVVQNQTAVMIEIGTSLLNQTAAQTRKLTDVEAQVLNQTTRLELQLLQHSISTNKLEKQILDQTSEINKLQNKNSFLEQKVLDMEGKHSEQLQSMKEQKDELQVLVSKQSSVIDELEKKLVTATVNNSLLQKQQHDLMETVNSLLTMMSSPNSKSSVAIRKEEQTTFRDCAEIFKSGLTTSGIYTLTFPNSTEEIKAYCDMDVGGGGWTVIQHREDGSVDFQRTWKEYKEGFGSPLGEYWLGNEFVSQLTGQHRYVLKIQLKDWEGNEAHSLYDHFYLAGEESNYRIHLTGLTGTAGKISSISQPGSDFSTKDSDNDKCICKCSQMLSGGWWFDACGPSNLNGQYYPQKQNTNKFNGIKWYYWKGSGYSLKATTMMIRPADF


Legend:
human Ang-2 [1] = target: T1, human Ang-2; assay: competition ELISA vs Tie-2
human Ang-1 [2] = target: T2, human Ang-1; assay: competition ELISA vs Tie-2
rat Ang-2 (rAng-2) = target: T3, rat Ang-2 (rAng-2); assay: competition ELISA vs Tie-2
mouse Ang-2 [3] = target: T4, mouse Ang-2; assay: competition ELISA vs Tie-2
human Ang-2 [4] = target: T1, human Ang-2; assay: competition ELISA vs Tie-2
mouse Ang-2 [5] = target: T4, mouse Ang-2; assay: SPR
human Ang-2 [6] = target: T1, human Ang-2; assay: SPR
mouse Ang-2 [7] = target: T4, mouse Ang-2; assay: competition ELISA vs Tie-2
human Ang-1 [8] = target: T2, human Ang-1; assay: competition ELISA vs Tie-2
human Ang-2 [9] = target: T1, human Ang-2; assay: competition ELISA vs Tie-2
human Ang-2 [10] = target: T1, human Ang-2; assay: SPR
human Ang-2 [11] = target: T1, human Ang-2; assay: competition ELISA vs Tie-2

IC50 (mouse Ang-2 [7]) [nM] | IC50 (human Ang-1 [8]) [nM] | IC50 (human Ang-2 [9]) [nM] | IC50 (human Ang-2 [11]) [nM] | Binder | also measured
7.7 | > 1000 | 21 | – | MGAQFDYCEGVEDPFTFGCDNHLEGGGGGX (not fully specified (C-terminus, bridges); printed as MGAQ-FDYCEGVEDPFTFGCDNHLE-GGGGG-Fc; cysteine pairing not given here) [TN12-9 (N)] | Kd (mouse Ang-2 [5]): 0.32 nM; Kd (human Ang-2 [6]): 8.2 nM
33 | > 1000 | 45 | – | MGAQHQICKWDPWTCKHWLEGGGGGX (not fully specified (C-terminus, bridges); printed as MGAQ-HQICKWDPWTCKHWLEGGGGG-Fc; cysteine pairing not given here) [TN8-14 (N)] | –
~700 | > 1000 | 80 | – | MGAQKRPCEEMWGGCNYDLEGGGGGX (not fully specified (C-terminus, bridges); printed as MGAQ-KRPCEEMWGGCNYDLEGGGGG-Fc; cysteine pairing not given here) [TN8-8 (N)] | –

Second part, the binder before the results:

Binder | IC50 (mouse Ang-2 [7]) [nM] | IC50 (human Ang-1 [8]) [nM] | IC50 (human Ang-2 [9]) [nM] | IC50 (human Ang-2 [11]) [nM] | also measured
M[Fc]GGGGGAQTNIQEECEWDPWTCDHMPGKLE (not fully specified; cysteine pairing not given here) [Con4-40 (C)] | – | – | – | – | IC50 (human Ang-2 [1]): 0.1 nM; IC50 (human Ang-1 [2]): > 1000 nM; IC50 (rat Ang-2 (rAng-2)): 0.35 nM; IC50 (mouse Ang-2 [3]): 0.27 nM; IC50 (human Ang-2 [4]): 0.2 nM
MGAQQYGCDGFLYGCMINLEGGGGG[Fc(7)] (not fully specified (bridges); printed as MGAQ-QYGCDGFLYGCMINLE-GGGGG-Fc; cysteine pairing not given here; also: Fc fusion domain at position 26) [C17 (N)] | 13 | > 1000 | 9 | – | –
M[Fc(4)]GGGGGAQPIRQEECDWDPWTCEHMWEVLE (not fully specified; cysteine pairing not given here) [Con4-44 (C)] | – | – | – | – | Kd (human Ang-2 [10]): 0.21 nM; IC50 (human Ang-2 [1]): 0.09 nM; IC50 (human Ang-1 [2]): 43 nM; IC50 (rat Ang-2 (rAng-2)): 0.22 nM; IC50 (mouse Ang-2 [3]): 0.16 nM; IC50 (human Ang-2 [4]): 0.08 nM
2xL1 (N) (designed binder) MGAQKFNPLDELEETLYEQFTFQQGGGGGGGGKFNPLDELEETLYEQFTFQQLEGGGGG[Fc(7)] | 0.8 | – | 0.65 | – | –
MQEECEWDPWTCEHMGSGSATGGSGSTASSGSGSATHLEGGGGG[Fc] (not fully specified (bridges); cysteine pairing not given here; also: Fc fusion domain at position 45) [Con4 (N) 1K-WT] | 1.9 | – | – | – | –
MGAQKRPCEEIFGGCTYQLEGGGGG[Fc] (not fully specified (bridges); printed as MGAQ-KRPCEEIFGGCTYQLEGGGGG-Fc; cysteine pairing not given here; also: Fc fusion domain at position 26) [Con1 (N)] | ~200 | > 1000 | 26 | – | –
MGAQQKFQPLDELEQTLYEQFMLQQALEGGGGG[Fc(3)] [L1-10 (N)] | – | – | – | 0.05 | Kd (human Ang-2 [10]): 0.77 nM; IC50 (human Ang-1 [2]): > 1000 nM; IC50 (rat Ang-2 (rAng-2)): 0.06 nM; IC50 (mouse Ang-2 [3]): 0.06 nM; IC50 (human Ang-2 [4]): 0.06 nM
MGAQYKFNPMDELEQTLYEEFLFQHALEGGGGG-{Fc″} [L1-22 (N)] | – | – | – | 0.09 | –
M[Fc]GGGGGAQGQDLRPCEDMFGCGTKDWYGLE (not fully specified (bridges); cysteine pairing not given here; also: Fc fusion domain at position 2) [Con1-6 (C)] | – | – | – | 8.6 | –
MGAQKFNPLDELEETLYEQFTFQQLEGGGGG[Fc(3)] [L1 (N)] | 11 | > 1000 | 6 | – | Kd (mouse Ang-2 [5]): 0.42 nM; Kd (human Ang-2 [6]): 3.1 nM
MGAQTNFQPLDELDQTLYEQWTLQQRLEGGGGG-Fc [L1-C3 (N)] | – | – | – | 0.06 | –
MGAQQNFKPMDELEDTLYKQFLFQHSLEGGGGG[Fc(3)] [L1-11 (N)] | – | – | – | 0.07 | –
M[Fc(7)]GGGGGAQLLDYCEGVQDPFTFGCENLDLE (not fully specified (bridges); cysteine pairing not given here) [12-9-5 (C)] | – | – | – | 1.56 | –
MGAQQEYEPLDELDETLYNQWMFHQRLEGGGGG[Fc(3)] [L1-13 (N)] | – | – | – | 0.05 | –
